# Measured values: the supplement of paper PMC9170038
# System: K4 kissing-loop RNA reporter
# Assay: apparent KD of K4 kissing-loop reporter; higher = weaker reporter binding
# Conditions: Eterna round: R107
# Description: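 RNA-MaP round R107: designed RNA switches with theophylline, tryptophan, arginine or FMN aptamers are transcribed on-chip within common flanks. They are titrated with a labelled K4 kissing-loop RNA reporter in RNA-MaP buffer (100 mM Tris pH 7.5, 80 mM KCl, 4 mM MgCl2), without ligand or with the indicated ligand. Median apparent KD per design.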
# [1] = input ligand: theophylline 20 uM
# [2] = input ligand: tryptophan 2.4 mM
# 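Also: bound reporter read as fluorescence of individual clusters on recovered sequencing chips by microscopy, with normalized cluster intensities fitted with a binding model.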
Sequence,apparent KD of K4 kissing-loop reporter (input ligand: FMN 200 uM),apparent KD of K4 kissing-loop reporter (input ligand: arginine 13.2 mM),apparent KD of K4 kissing-loop reporter (input ligand: none),apparent KD of K4 kissing-loop reporter [1],apparent KD of K4 kissing-loop reporter [2]
UUAGAGAUCUCAGGAUAUCAGUGAUGUUGGUGUGAAGAUCUGAGAUAGAAUUCUAUCUCAGAUCAAUGAGAAGGGAGAUCUCAUU [AK3.1 Exc FMN B],385 nM,162 nM,209 nM,181 nM,168 nM
UCGAACGAUGGAAGGAGCGCUCGUCAGCCCUGCGAGUGAUGUUCGUGGGUAAAUAGUCGCGAGCAGGUAGGUCGCCAUCUUGAGC [Zainsotima],123 nM,101 nM,129 nM,119 nM,124 nM
AAGUAAUUAAUAAUUUAUAUAAGUUAAACAGAGGAUAUGCAUUAUUGCAGAAGGCUGAAUGCAGUGAUGUUGCAAUGAUUAUUUA [JR_SSFMNA_Sub001],18.9 nM,84.7 nM,58.3 nM,116 nM,60.8 nM
GGAUAGGACAGAGGAUAUCCUGAGUCUACAAAGUAGGCUCAUAAAGGAUGAAUCCUAGUGAUGUUAGGAGAAGGCUGUCCUAUCG [FmnBX 16 - #SwitchBubble #StaticStem #Palindromic],110 nM,84.6 nM,76.3 nM,79.5 nM,88.7 nM
AAGUGAUGUUGUAGUGAUGUUGUGAUGUUGCAGGAUAUAUAGUGAUGUAGAAGGGUAAGUACUUAUUUUUUUUUUGAGUUAUGUU [crrczrmullin],85.5 nM,33 nM,62.8 nM,45.9 nM,65.4 nM
GAAAGAAAGAAUGAUACCAGACACCCGAGUGAUGUUCGGAGCAGAGUGAUGUUCUUAUAAGUCCCUUGGCAGCAUAAAAGAAAAG [whbob_SS_Theo_B_sa82],192 nM,171 nM,196 nM,186 nM,153 nM
UGCAUGUGAAACAUGUAGGUGCUAGGUGAAGGAGCGAUCGAAAGAUCAGGUAGGUCGCACCUUCCUGAGUGAUGUUCAGGUAAUA [KL-SSArg-A2],60.3 nM,31.7 nM,47.7 nM,55.2 nM,46 nM
UUUAAAUAUAGUGAUGUUAUAUAACAAUGACGAGGACCGGUACGGCCGCCACUCGAGAGAGAUAAUGGUCUAUAGAAUCUAUAGC [AstrosSSTryA#4],726 nM,622 nM,803 nM,870 nM,508 nM
UGUAUGUGAUUUGAUACCAGACCAGGUGGAGGAAUCUGAGUGAUGUUCAGGUAGGUUCUGGUCCCUUGGCAGCAAAUCGCAUACU [KL-SSTheoB19],166 nM,133 nM,168 nM,150 nM,160 nM
ACAGGAUCGAAAGAUCCUGAGCAGUCUAACCGAGGACCGGUACGGCCGCCACUCGGAGUGAUGUUCCGAGGACUGCAAAAUAAAA [#SwitchBubble 2 #CoaxialStacking],330 nM,305 nM,298 nM,329 nM,795 nM
CGAGAAUGUCGACAGUCAUCGGUCCAUGCACGAGGACCGGUACGGCCGCCACUCGAGCGUGGCAGUGAUGUUGCCAGCGCACUAA [KL-XTryp-A14],99.6 nM,85.1 nM,86.3 nM,86 nM,100 nM
ACGCUGGUGAAUAACACUAGCGAAUAAUUCCGAGGACCGGUACGGCCGCCACUCGGCUAACUGCGAGUGAUGUUCGAUAAUAAAA [Mat - Mod of OpenEnded 3 - D10],78.5 nM,158 nM,103 nM,156 nM,57.5 nM
UUAGAGAUCUCAGGAUAUGAGUGAUGUUGGUAUCAAGAUCUGAGAUAGAAUUCUAUCUCAGAUCAAUCAGAAGGGAGAUCUCAUU [AK2.1 Exc FMN B],376 nM,424 nM,534 nM,583 nM,550 nM
CCCAGUGAUGUUGGUUAAUAUAUUGAUUAACGAGGACCGGUACGGCCGCCACUCGAUAUUUCUAUAAUUAAAAGUUUUGUUUAAA [JR_SSTryptoA_Sub001],459 nM,426 nM,435 nM,417 nM,327 nM
UGUACCGAGUCAGGAUAUCAUAAUAAUGCAGUGAUGUUGCAAUAACGACUGACAAAGUCGGUCGAUUGAGAAGGGACUUGGUACU [FmnBS 6 #SwitchBubble #StaticStem],127 nM,118 nM,129 nM,110 nM,126 nM
UUGGGCAACCGAGAUACCAGUCAAAUCGCUCUGGAGUGAUGUUCCGGAACAUGCGGAGAAGACCCUUGGCAGCUCAAGACGGACA [Exclusion Theophylline B GF 1],111 nM,107 nM,107 nM,113 nM,91.2 nM
UGUGUUGUUUUGAUGUUUGUUGUAAGGUGGCAGGAUAUCGUAGAGGCGAGAAGGGCUUUUUUGCGUUAUGAGUGAUGUUUGUAGG [exeerzmullin],592 nM,379 nM,614 nM,471 nM,386 nM
UCUUUACCGGGAAGGAGCGUGAAUGAGAAUGGAUAUAGUGAUGUUAUGUAUACGAACGAAUCGCAGGUAGGUCGCCCGGAUCCCU [SSArgB.aB],1150 nM,316 nM,643 nM,685 nM,485 nM
GCUACCUAUGCAGGAUAUGGUAUUACGAGUGAUGUUCGAGGCAUAUAGAGUGAUGUUCUAUAUCCACCAGAAGGGCAUAGGUAGC,184 nM,148 nM,179 nM,162 nM,164 nM
UAUCAGAUUACUGAUACCAGUCUAAAGACAGUGAUGUUGUCUGAUCGACCACGAUCAAAGGACCCUUGGCAGCAGUAUACUAUUC [Theo B SS t5],163 nM,157 nM,157 nM,164 nM,158 nM
AGUUCCGACGGAAGGAGCGGACAGUAUUGACGGAAAGGUGCAAGUGAUGUUUGCGCUUGUGUCCAGGUAGGUCGCCGUCGGAACA [Arg B SS t13],91.3 nM,82.4 nM,84.7 nM,79.3 nM,89.4 nM
GGUGCUGUCUGUGCCGCCUUCCUCGUUCCUCGAGGACCGGUACGGCCGCCACUCGAGUGAUGUUUGGGUAGCGAUCCCUGCUAGC [Bdazzled - #15 Exc. Tryptophan A],1010 nM,737 nM,1180 nM,1030 nM,917 nM

Sequence,apparent KD of K4 kissing-loop reporter (input ligand: FMN 200 uM),apparent KD of K4 kissing-loop reporter (input ligand: arginine 13.2 mM),apparent KD of K4 kissing-loop reporter (input ligand: none),apparent KD of K4 kissing-loop reporter [1],apparent KD of K4 kissing-loop reporter [2]
AGUAUGGCAACAUUGCAAGUAGCCGUACCACGAGGACCGGUACGGCCGCCACUCGAUAACUUGCAGUGAUGUUGCAAGUAAGAAU [(T)''-(K)'-(T)'-(T1)-(T2)-(K1)-(K2)_Design4],193 nM,206 nM,227 nM,268 nM,199 nM
GCAAAACGCAGUGAUGUUGCGAUAUCGGAAGGAGCGCGUGAAAACGCAGGUAGGUCGCCGAUUCAGUGAGUAUCUCGCUGUUUGC [Arginine A K4 18],258 nM,283 nM,293 nM,259 nM,232 nM
AGAUUCGACACGGCCGCCACUUGUGGUGGAUUAUCCUAUGUCGAACAUGAGUGAUGUUCAUGUACAAGGACCGGGUGUUGAGUCU [KL-XTryp-B6 #analogue],476 nM,373 nM,421 nM,438 nM,492 nM
ACCAUCAAAGAUGGCCAGGACUCCGCUGAUACCAGUGUGAAAACACUCCCUUGGCAGCAGGUGAGUGAUGUUCACAGUCCAUGGA [Omel KL Theo A SS B v3],145 nM,116 nM,150 nM,146 nM,143 nM
AAGCAGUCACUCGAAACCAUCGAAGAUGGUCGAGGACCGGUACGGCCGCCACUCGGAGUGAUGUUCCGAAGACUGCAAAAUAAAA [#SwitchBubble 10],313 nM,334 nM,286 nM,277 nM,751 nM
GUGCGGCUAGUGAUGUUGGUUGCGUGGGAAGGAGCGCAGUAAAAUGCAGGUAGGUCGCCCGCAUCUCUGAUAAAAGAUUAAUUCA [KL-SSArg-A9],276 nM,196 nM,228 nM,238 nM,228 nM
AAGGUAAGUGCAUACAAAGUGAUGUUUUGUCGAGGACCGGUACGGCCGCCACUCGCCCAGUUAAGUGACCGACGUCAACGAAUAA [theeternabot_exclusion_KL_Trp_A_21],606 nM,552 nM,582 nM,502 nM,498 nM
UGGUAUAGUGAUGUUAUACCACUACCAGAUACCAGUGUAACAUUACGCCCUUGGCAGCUGAUCAGGGAACAUAUGGAGACAUAUG [Theo A Mod astro A#6],318 nM,261 nM,285 nM,267 nM,292 nM
UCCUGCAAUCGACCACGAAAGUGGAUUGAUACCAGAGUCGAAAGACUCCCUUGGCAGCGAGUGAUGUUCGAAGCAGGUAAAUAAA,626 nM,455 nM,539 nM,457 nM,426 nM
UAUUUAAAUAAAAUAAAAUAAAUUGCUGAUACCAGAGUCAAUUGACUCCCUUGGCAGCGGAUCGAGUGAUGUUCGUAAAAUUUAU [AK2.1 SS Theophylline A],27.4 nM,57.7 nM,30.8 nM,58.5 nM,31.9 nM
UUUACCAGUGAUGUUGGCCUAGUAUUUACACGAGGACCGGUACGGCCGCCACUCGCAUUAUCGGACUUUGAUAAGCAUAUUAUAU [theeternabot_sameState_KL_Trp_A_28],317 nM,283 nM,318 nM,384 nM,199 nM
GUUACGCAUGGAAGGAGCGCUCUCCGGCUUAAUAACACAGUGAUGUUGUGAAUUUGCCGAAAGCAGGUAGGUCGCCAUGUGUAAC [Ex Arginine B K4 10],474 nM,359 nM,453 nM,435 nM,413 nM
UUAACCAACAGCGAUACCAGCGUGGAGUGAUGUUCCGAGGAUCGGAGUGAUGUUCCGAAGCGCCCUUGGCAGCGCAGAAGCGCCA [Exclusion Theophylline B GF9],183 nM,115 nM,130 nM,139 nM,134 nM
GGUAGCAUGGCGGCCGCCACUUACUUCAAUAGGAGUGAUGUUCCUAUUACUAGUAGUGAAAUAAUAAGGACCGGGCCAUGCUACC,103 nM,87.9 nM,95.2 nM,82.8 nM,96.8 nM
GUGAAGGAGCUGCAGUGAUGUUGCAGAGACUAGGAUAUCAGGAAACUGAGAAGGAGUCAACUCCUUCACCUAGACACUGCAGAAA [[F]''-[K1]-[K2]-[F1]-[F2]-[F2]'-[F1]'-[K]'_Design1],110 nM,108 nM,128 nM,170 nM,143 nM
GCCGUACGCAUGGAUACCAGCAUCAGAUCUUAGUGAUGUUAAGUCGAGAGUUGGUCAAAAUGCCCUUGGCAGCCAUGCGUACGGC,128 nM,90.8 nM,105 nM,99.5 nM,98.2 nM
CGACUAUUUCGAUAGUCGAUAGACACGGAAGGAGCGGGAUUCGUCCCAGGUAGGUCGCCGUGAAGUUGAGUGAUGUUCAACGUGU [Arg A SS t13],160 nM,155 nM,155 nM,170 nM,147 nM
UCGUCCGGAUUACUCGUGGUCAUGGUCGAUACCAGUAGAUUAAUCUACCCUUGGCAGCGACAUGAGUGAUGUUCAUGUGCAAUGA [KL-XTheo-A6 #analogue],383 nM,341 nM,360 nM,492 nM,383 nM
GUAUCGCUAGGAGGAUAUUCCGUUUUUCAUAGCAAUGGCUAUGCGGAGUGAUGUUCCGAUUUACCGGAAGAAGGCCUAGUGAUAC [FMN B 24],108 nM,139 nM,128 nM,148 nM,114 nM
GGAUGGUAGGCGGCCGCCACUAAAACUGAACACAUACAAACCAGUGAUGUUGGUAUGAUGAAGUAUAGGACCGGGCCUAGAUAGA [Exclusion - Tryptophan B (Freestyle 2)],1040 nM,731 nM,972 nM,672 nM,827 nM
UUCAUCGUGGUUCGCGGGUGGUAUGAAAAGCGAGGACCGGUACGGCCGCCACUCGGUUCCGCUUGUUGAGUGAUGUUCAAUAUUU,207 nM,281 nM,251 nM,350 nM,229 nM
